Assay results reported in PMC10786891, “Massively parallel profiling of RNA-targeting CRISPR-Cas13d”.
Where a chain is given by its changes, count along the chain named. In names and notes the source's numbering stands.

T1: EsCas13d, nuclease-dead (Eubacterium siraeum, UniProt B0MS50, R295A;H300A;R849A;H854A)
T1 sequence: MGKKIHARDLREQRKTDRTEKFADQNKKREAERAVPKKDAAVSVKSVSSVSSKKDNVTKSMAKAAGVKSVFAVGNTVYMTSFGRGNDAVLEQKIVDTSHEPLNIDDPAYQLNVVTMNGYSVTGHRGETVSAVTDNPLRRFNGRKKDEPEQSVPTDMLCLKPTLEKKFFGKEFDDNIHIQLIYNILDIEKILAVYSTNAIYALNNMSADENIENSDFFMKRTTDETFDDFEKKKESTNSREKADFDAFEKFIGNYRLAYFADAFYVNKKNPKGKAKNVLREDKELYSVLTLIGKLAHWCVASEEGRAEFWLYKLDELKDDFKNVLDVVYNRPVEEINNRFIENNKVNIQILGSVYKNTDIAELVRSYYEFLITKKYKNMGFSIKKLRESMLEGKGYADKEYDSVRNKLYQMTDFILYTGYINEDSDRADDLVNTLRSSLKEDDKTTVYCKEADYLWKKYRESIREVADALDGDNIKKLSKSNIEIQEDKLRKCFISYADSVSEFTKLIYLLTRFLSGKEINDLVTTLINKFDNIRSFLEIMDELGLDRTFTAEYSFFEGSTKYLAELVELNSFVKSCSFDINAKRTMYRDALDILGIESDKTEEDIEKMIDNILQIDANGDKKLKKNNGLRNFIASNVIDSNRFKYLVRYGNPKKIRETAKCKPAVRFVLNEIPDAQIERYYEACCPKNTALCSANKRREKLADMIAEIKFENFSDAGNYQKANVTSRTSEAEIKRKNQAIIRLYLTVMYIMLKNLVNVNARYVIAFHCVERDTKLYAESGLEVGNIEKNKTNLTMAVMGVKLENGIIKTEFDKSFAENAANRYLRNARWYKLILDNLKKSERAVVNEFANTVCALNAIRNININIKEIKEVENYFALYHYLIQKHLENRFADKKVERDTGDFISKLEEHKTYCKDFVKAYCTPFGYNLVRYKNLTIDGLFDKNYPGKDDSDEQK

B1: target 1 G13A,A16U (mixed)
RNA 1: CACCCGUGCAAAAAUGCAGGGGUCUAAAACUGAGCGGAUAACCUCUCUAUGG
RNA 2: GGGAAUGGAUCCACAUCUACGAAUUCGUACCAUAGUGAAGUUAUCCGCUCACCGAGAUCGGAAGAGCACACGU
B2: target 1 insG 3' of 6,insG 3' of 2 (mixed)
RNA 1: B1 RNA 1
RNA 2: GGGAAUGGAUCCACAUCUACGAAUUCGUACCAUAGAGAGGUUAUCCGGCUCGACCGAGAUCGGAAGAGCACACGU
B3: target 1 del16 (mixed)
RNA 1: B1 RNA 1
RNA 2: GGGAAUGGAUCCACAUCUACGAAUUCGUACCAUAGGAGGUUAUCCGCUCACCGAGAUCGGAAGAGCACACGU
B4: target 1 G15U,A16C (mixed)
RNA 1: B1 RNA 1
RNA 2: B1 RNA 2 with U36C, G37U, A39G
B5: target 1 insG 3' of 18,insA 3' of 6 (mixed)
RNA 1: B1 RNA 1
RNA 2: GGGAAUGGAUCCACAUCUACGAAUUCGUACCAUAGGAGAGGUUAUCCAGCUCACCGAGAUCGGAAGAGCACACGU
B6: target 1 G13A,A18U (mixed)
RNA 1: B1 RNA 1
RNA 2: B1 RNA 2 with A34U, U36A
B7: target 1 G5A (mixed)
RNA 1: B1 RNA 1
RNA 2: B1 RNA 2 with U36A, A39G, G47A
B8: target 1 C6A,U10A (mixed)
RNA 1: B1 RNA 1
RNA 2: B1 RNA 2 with U36A, A39G, U42A, C46A
B9: target 1 A1C,G5A (mixed)
RNA 1: B1 RNA 1
RNA 2: B1 RNA 2 with U36A, A39G, G47A, A51C
B10: target 1 U8G,A14C (mixed)
RNA 1: B1 RNA 1
RNA 2: B1 RNA 2 with U36A, A38C, A39G, U44G
B11: target 1 G17U,A20G (mixed)
RNA 1: B1 RNA 1
RNA 2: B1 RNA 2 with A32G, G35U, U36A, A39G
B12: target 1 C6U,C21U (mixed)
RNA 1: B1 RNA 1
RNA 2: B1 RNA 2 with C31U, U36A, A39G, C46U
B13: target 1 insA 3' of 6,insG 3' of 3 (mixed)
RNA 1: B1 RNA 1
RNA 2: B2 RNA 2 with G47A, C51G, G52C
B14: target 1 A1U,G5A (mixed)
RNA 1: B1 RNA 1
RNA 2: B1 RNA 2 with U36A, A39G, G47A, A51U
B15: target 1 insC 3' of 1 (mixed)
RNA 1: B1 RNA 1
RNA 2: GGGAAUGGAUCCACAUCUACGAAUUCGUACCAUAGAGAGGUUAUCCGCUCACCCGAGAUCGGAAGAGCACACGU
B16: target 1 G5U,C22A (mixed)
RNA 1: B1 RNA 1
RNA 2: B1 RNA 2 with C30A, U36A, A39G, G47U
B17: target 1 insG 3' of 11,insG 3' of 4 (mixed)
RNA 1: B1 RNA 1
RNA 2: B2 RNA 2 with U42G, A43U, U44A, C45U, G47C, U50G, C51U, G52C
B18: target 1 C7U,G13A (mixed)
RNA 1: B1 RNA 1
RNA 2: B1 RNA 2 with U36A, C45U
B19: target 1 U8A,A20U (mixed)
RNA 1: B1 RNA 1
RNA 2: B1 RNA 2 with A32U, U36A, A39G, U44A
B20: target 1 insU 3' of 18,insG 3' of 1 (mixed)
RNA 1: B1 RNA 1
RNA 2: B5 RNA 2 with G35U, A48G, G49C, C50U, U51C, C52A, A53G
B21: target 1 insA 3' of 21,insU 3' of 20 (mixed)
RNA 1: B1 RNA 1
RNA 2: GGGAAUGGAUCCACAUCUACGAAUUCGUACCAAUUAGAGAGGUUAUCCGCUCACCGAGAUCGGAAGAGCACACGU
B22: target 1 C2G,C4U (mixed)
RNA 1: B1 RNA 1
RNA 2: B1 RNA 2 with U36A, A39G, C48U, C50G
B23: target 1 A9U,G15U (mixed)
RNA 1: B1 RNA 1
RNA 2: B1 RNA 2 with U36A, G37U, A39G, A43U
B24: target 1 insU 3' of 18,insC 3' of 1 (mixed)
RNA 1: B1 RNA 1
RNA 2: B5 RNA 2 with G35U, A48G, G49C, C50U, U51C, C52A, A53C
B25: target 1 insU 3' of 18,insA 3' of 2 (mixed)
RNA 1: B1 RNA 1
RNA 2: B5 RNA 2 with G35U, A48G, G49C, C50U, U51C, C52A
B26: target 1 insC 3' of 8,insA 3' of 6 (mixed)
RNA 1: B1 RNA 1
RNA 2: B2 RNA 2 with G47C, G48A, C49G, U50C, C51U, G52C
B27: target 1 insA 3' of 21,insA 3' of 3 (mixed)
RNA 1: B1 RNA 1
RNA 2: B5 RNA 2 with U33A, A34U, G35A, A48G, G49C, C50U, U51A
B28: target 1 C6A,G12A (mixed)
RNA 1: B1 RNA 1
RNA 2: B1 RNA 2 with U36A, A39G, G40A, C46A
B29: target 1 insC 3' of 15,insG 3' of 9 (mixed)
RNA 1: B1 RNA 1
RNA 2: B5 RNA 2 with G36A, A37G, G38C, U45G, C46U, A48C
B30: target 1 insU 3' of 15,insC 3' of 13 (mixed)
RNA 1: B1 RNA 1
RNA 2: B21 RNA 2 with A33U, U34A, U35G, A38U, G39A, A40G, G41C
B31: target 1 insG 3' of 22,insC 3' of 18 (mixed)
RNA 1: B1 RNA 1
RNA 2: B21 RNA 2 with C31G, A32C, U35A, A36C
B32: target 1 insC 3' of 13,insG 3' of 10 (mixed)
RNA 1: B1 RNA 1
RNA 2: B21 RNA 2 with A33U, U34A, U35G, A40C, G42U, U44G
B33: target 1 insG 3' of 6,insA 3' of 6 (mixed)
RNA 1: B1 RNA 1
RNA 2: B2 RNA 2 with G48A, C49G, U50C, C51U, G52C
B34: target 1 insA 3' of 17,insU 3' of 4 (mixed)
RNA 1: B1 RNA 1
RNA 2: B5 RNA 2 with G36A, A48G, G49C, C50U

Target: T1, EsCas13d, nuclease-dead
Assay: crRNA (strand 1, pre-loaded); Mg2+; 40 mM Tris-HCl pH 7.5, 150 mM NaCl, 6 mM MgCl2, 1 mM DTT, 0.1% Tween-20, 0.2 mg/ml BSA; 25 C; 10 min per concentration, then washed
Settings: tags: His6-TwinStrep-SUMO cleaved; N-terminal SNAP kept (SNAP-Surface 488); label: 3' end held by stalled T7 RNA polymerase

| Binder | Kd |
| --- | --- |
| B1 | 43 ± 6 nM |
| B2 | 10.4 ± 1.1 nM |
| B3 | 46 ± 4 nM |
| B4 | 83 ± 16 nM |
| B5 | 73 ± 25 nM |
| B6 | 22.5 ± 2 nM |
| B7 | 51 ± 8 nM |
| B8 | 7.7 ± 0.4 nM |
| B9 | 26 ± 9 nM |
| B10 | ~80 nM |
| B11 | 40 ± 6 nM |
| B12 | 6.2 ± 0.4 nM |
| B13 | 13.1 ± 0.5 nM |
| B14 | 34 ± 6 nM |
| B15 | 9.1 ± 0.6 nM |
| B16 | 54 ± 14 nM |
| B17 | 54 ± 13 nM |

| Binder | Kd |
| --- | --- |
| B18 | 6.2 ± 0.7 nM |
| B19 | 80 ± 21 nM |
| B20 | 27.4 ± 1.3 nM |
| B21 | 19.7 ± 1.9 nM |
| B22 | 54 ± 16 nM |
| B23 | 46 ± 11 nM |
| B24 | 23.5 ± 2 nM |
| B25 | 33.5 ± 2.6 nM |
| B26 | 17.7 ± 0.9 nM |
| B27 | 12.2 ± 0.6 nM |
| B28 | 7.07 ± 0.35 nM |
| B29 | 20.8 ± 1 nM |
| B30 | 19.3 ± 2.7 nM |
| B31 | 73 ± 23 nM |
| B32 | 15.8 ± 1.7 nM |
| B33 | 10.6 ± 1.1 nM |
| B34 | 44 ± 5 nM |
